T1: DFNB31_1, Q9P202
T1 sequence (Q9P202 135-233, limits assumed, looked up): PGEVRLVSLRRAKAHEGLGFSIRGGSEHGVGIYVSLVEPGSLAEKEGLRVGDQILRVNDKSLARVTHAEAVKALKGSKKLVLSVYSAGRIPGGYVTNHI

T2: MPDZ_12, O75970
T2 sequence (O75970 1857-1958, limits assumed, looked up): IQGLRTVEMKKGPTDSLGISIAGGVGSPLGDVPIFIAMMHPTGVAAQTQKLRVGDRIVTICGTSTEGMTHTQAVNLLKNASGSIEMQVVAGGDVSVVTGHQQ

T3: DLG3_1, Q92796
T3 sequence (Q92796 125-227, limits assumed, looked up): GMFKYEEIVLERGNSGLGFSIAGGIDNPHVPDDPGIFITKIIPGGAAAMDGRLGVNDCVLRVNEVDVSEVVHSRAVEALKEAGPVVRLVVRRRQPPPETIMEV

T4: LIN7B, Q9HAP6
T4 sequence (Q9HAP6 88-185, limits assumed, looked up): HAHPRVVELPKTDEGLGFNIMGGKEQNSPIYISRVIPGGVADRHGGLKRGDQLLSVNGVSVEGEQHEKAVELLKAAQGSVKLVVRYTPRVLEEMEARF

T5: DLG3_3, Q92796
T5 sequence (Q92796 374-475, limits assumed, looked up): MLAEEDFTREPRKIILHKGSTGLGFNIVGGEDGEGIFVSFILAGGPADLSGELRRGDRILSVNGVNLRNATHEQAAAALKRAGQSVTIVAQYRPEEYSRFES

T6: TIAM2, Q8IVF5
T6 sequence (Q8IVF5 885-986, limits assumed, looked up): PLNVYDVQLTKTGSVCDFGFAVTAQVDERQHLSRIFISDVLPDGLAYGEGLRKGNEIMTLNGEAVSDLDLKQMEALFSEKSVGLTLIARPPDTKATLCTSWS

T7: PDZD7_3, Q9H5P4
T7 sequence (Q9H5P4 857-944, limits assumed, looked up): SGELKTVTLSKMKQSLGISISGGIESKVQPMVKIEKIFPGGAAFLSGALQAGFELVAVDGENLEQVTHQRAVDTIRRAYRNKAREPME

T8: ARHGAP21, Q5T5U3
T8 sequence (Q5T5U3 45-169, limits assumed, looked up): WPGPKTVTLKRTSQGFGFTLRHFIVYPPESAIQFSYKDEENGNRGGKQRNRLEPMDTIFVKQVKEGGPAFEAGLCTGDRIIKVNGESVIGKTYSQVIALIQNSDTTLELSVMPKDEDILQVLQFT

T9: RHPN1, Q8TCX5
T9 sequence (Q8TCX5 508-602, limits assumed, looked up): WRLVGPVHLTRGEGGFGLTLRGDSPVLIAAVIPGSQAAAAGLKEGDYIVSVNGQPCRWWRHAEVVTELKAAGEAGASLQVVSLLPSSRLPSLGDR

T10: PDZRN3_1, Q9UPQ7
T10 sequence (Q9UPQ7 244-349, limits assumed, looked up): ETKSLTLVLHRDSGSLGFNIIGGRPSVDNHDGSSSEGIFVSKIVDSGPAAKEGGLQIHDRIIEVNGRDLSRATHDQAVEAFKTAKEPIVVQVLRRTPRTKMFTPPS

T11: MPP7, Q5T2T1
T11 sequence (Q5T2T1 134-230, limits assumed, looked up): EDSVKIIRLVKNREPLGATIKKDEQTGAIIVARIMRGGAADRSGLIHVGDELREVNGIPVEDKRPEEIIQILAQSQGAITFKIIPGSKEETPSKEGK

T12: SHANK1, Q9Y566
T12 sequence (Q9Y566 658-767, limits assumed, looked up): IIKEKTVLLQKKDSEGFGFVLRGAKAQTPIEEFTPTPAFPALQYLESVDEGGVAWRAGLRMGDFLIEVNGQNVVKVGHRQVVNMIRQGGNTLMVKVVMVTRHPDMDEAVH


Key:
Assay in all cases: holdup assay
Set-up in all cases: key: below the threshold = too weak to quantify, mostly under pKd 3.1 to 4
Details in all cases: plain residues with an end cap or a label only (N-terminal biotin on a linker: ado-ado)
LDB3, O75112 = target: LDB3, O75112
DFNB31_1, Q9P202 = target: T1, DFNB31_1, Q9P202
LNX1_1, Q8TBB1 = target: LNX1_1, Q8TBB1
SCRIB_3, Q14160 = target: SCRIB_3, Q14160
IL16_1, Q14005 = target: IL16_1, Q14005
MPDZ_12, O75970 = target: T2, MPDZ_12, O75970
DLG3_1, Q92796 = target: T3, DLG3_1, Q92796
LIN7B, Q9HAP6 = target: T4, LIN7B, Q9HAP6
HTRA2, O43464 = target: HTRA2, O43464
DLG3_3, Q92796 = target: T5, DLG3_3, Q92796
TIAM2, Q8IVF5 = target: T6, TIAM2, Q8IVF5
PDZD7_3, Q9H5P4 = target: T7, PDZD7_3, Q9H5P4
ARHGAP21, Q5T5U3 = target: T8, ARHGAP21, Q5T5U3
PARD3_3, Q8TEW0 = target: PARD3_3, Q8TEW0
MAGI2_4, Q86UL8 = target: MAGI2_4, Q86UL8
MAST1, Q9Y2H9 = target: MAST1, Q9Y2H9
RHPN1, Q8TCX5 = target: T9, RHPN1, Q8TCX5
DLG1_1, Q12959 = target: DLG1_1, Q12959
SCRIB_2, Q14160 = target: SCRIB_2, Q14160
PDZRN3_1, Q9UPQ7 = target: T10, PDZRN3_1, Q9UPQ7
PTPN3, P26045 = target: PTPN3, P26045
GOPC, Q9HD26 = target: GOPC, Q9HD26
ARHGEF12, Q9NZN5-2 = target: ARHGEF12, Q9NZN5-2
MPP7, Q5T2T1 = target: T11, MPP7, Q5T2T1
SHANK1, Q9Y566 = target: T12, SHANK1, Q9Y566

Sequence of HTRA2, O43464 (O43464 355-458): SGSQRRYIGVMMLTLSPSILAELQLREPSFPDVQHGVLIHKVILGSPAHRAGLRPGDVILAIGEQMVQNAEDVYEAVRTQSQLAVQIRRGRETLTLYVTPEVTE
Sequence of MAST1, Q9Y2H9 (Q9Y2H9 962-1065): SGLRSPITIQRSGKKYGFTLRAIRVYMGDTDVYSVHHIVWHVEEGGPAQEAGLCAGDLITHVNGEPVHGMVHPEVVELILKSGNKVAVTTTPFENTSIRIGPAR
Sequence of ARHGEF12, Q9NZN5-2 (Q9NZN5 other isoform, or with tags, fused parts or gaps): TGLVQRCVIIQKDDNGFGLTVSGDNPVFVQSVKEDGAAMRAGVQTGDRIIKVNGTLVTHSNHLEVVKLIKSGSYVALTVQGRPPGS
Sequence of LDB3, O75112 (O75112 1-94): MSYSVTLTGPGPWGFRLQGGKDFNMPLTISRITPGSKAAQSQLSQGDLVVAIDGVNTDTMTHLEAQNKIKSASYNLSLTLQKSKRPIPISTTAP
Sequence of SCRIB_3, Q14160 (Q14160 999-1103): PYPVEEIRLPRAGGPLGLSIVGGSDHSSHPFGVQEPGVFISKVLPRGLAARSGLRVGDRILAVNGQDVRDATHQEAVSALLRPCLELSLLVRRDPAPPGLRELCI
Sequence of PARD3_3, Q8TEW0 (Q8TEW0 582-685): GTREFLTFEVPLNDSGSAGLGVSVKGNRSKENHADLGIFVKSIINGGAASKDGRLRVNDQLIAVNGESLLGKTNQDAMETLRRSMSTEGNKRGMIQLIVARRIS
Sequence of MAGI2_4, Q86UL8 (Q86UL8 772-865): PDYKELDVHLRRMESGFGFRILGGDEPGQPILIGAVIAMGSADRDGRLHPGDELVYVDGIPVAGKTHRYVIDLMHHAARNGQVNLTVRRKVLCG
Sequence of SCRIB_2, Q14160 (Q14160 857-960): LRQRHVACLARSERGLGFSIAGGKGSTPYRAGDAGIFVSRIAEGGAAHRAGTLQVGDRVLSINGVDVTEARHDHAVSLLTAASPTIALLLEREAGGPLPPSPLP
Sequence of PTPN3, P26045 (P26045 505-587): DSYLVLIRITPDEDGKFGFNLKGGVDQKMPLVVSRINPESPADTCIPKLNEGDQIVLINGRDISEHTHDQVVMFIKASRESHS
Sequence of LNX1_1, Q8TBB1 (Q8TBB1 261-371): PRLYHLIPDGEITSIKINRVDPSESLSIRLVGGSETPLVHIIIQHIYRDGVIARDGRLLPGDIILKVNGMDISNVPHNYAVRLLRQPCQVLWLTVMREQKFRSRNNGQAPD
Sequence of IL16_1, Q14005 (Q14005 210-306): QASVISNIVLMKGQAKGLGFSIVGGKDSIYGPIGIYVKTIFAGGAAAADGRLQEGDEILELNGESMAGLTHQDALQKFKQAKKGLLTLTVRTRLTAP

pKd (LDB3, O75112)	pKd (DFNB31_1, Q9P202)	pKd (LNX1_1, Q8TBB1)	pKd (SCRIB_3, Q14160)	pKd (IL16_1, Q14005)	pKd (MPDZ_12, O75970)	pKd (DLG3_1, Q92796)	pKd (LIN7B, Q9HAP6)	pKd (HTRA2, O43464)	pKd (DLG3_3, Q92796)	pKd (TIAM2, Q8IVF5)	pKd (PDZD7_3, Q9H5P4)	pKd (ARHGAP21, Q5T5U3)	pKd (PARD3_3, Q8TEW0)	pKd (MAGI2_4, Q86UL8)	pKd (MAST1, Q9Y2H9)	pKd (RHPN1, Q8TCX5)	pKd (DLG1_1, Q12959)	pKd (SCRIB_2, Q14160)	pKd (PDZRN3_1, Q9UPQ7)	Binder	other results
below the threshold	below the threshold	4.3	4.37	below the threshold	3.77	4.19	3.9	4.52	4.47	4.06	5.26	below the threshold	below the threshold	3.82	4.39	4.48	4.83	below the threshold	3.89	NASRTRITFV [MCM7, P33993]	pKd (PTPN3, P26045): 4.71; pKd (GOPC, Q9HD26): 4.2; pKd (ARHGEF12, Q9NZN5-2): 4.46; pKd (MPP7, Q5T2T1): below the threshold; pKd (SHANK1, Q9Y566): below the threshold
below the threshold	3.55	3.86	below the threshold	below the threshold	below the threshold	below the threshold	below the threshold	4.3	3.56	4.01	below the threshold	below the threshold	below the threshold	3.69	4.07	below the threshold	below the threshold	below the threshold	below the threshold	QSPPNIYYKV [EFNB3, Q15768]	pKd (PTPN3, P26045): 4.05; pKd (GOPC, Q9HD26): 3.51; pKd (ARHGEF12, Q9NZN5-2): below the threshold; pKd (MPP7, Q5T2T1): 3.66; pKd (SHANK1, Q9Y566): below the threshold
below the threshold	4.34	below the threshold	3.5	below the threshold	below the threshold	below the threshold	3.47	below the threshold	below the threshold	3.65	4.22	3.97	below the threshold	below the threshold	4.63	4.36	below the threshold	below the threshold	below the threshold	ANGLMQTSKL [SSTR5, P35346]	pKd (PTPN3, P26045): 4.1; pKd (GOPC, Q9HD26): 4.93; pKd (ARHGEF12, Q9NZN5-2): 4.62; pKd (MPP7, Q5T2T1): below the threshold; pKd (SHANK1, Q9Y566): 4.65
3.51	below the threshold	3.79	3.51	below the threshold	3.6	below the threshold	below the threshold	below the threshold	below the threshold	below the threshold	below the threshold	4.25	3.83	3.66	below the threshold	3.56	3.67	below the threshold	below the threshold	ETSLVKGIDI [DENND5A, Q6IQ26]	pKd (PTPN3, P26045): below the threshold; pKd (GOPC, Q9HD26): below the threshold; pKd (ARHGEF12, Q9NZN5-2): 4.17; pKd (MPP7, Q5T2T1): 4.47; pKd (SHANK1, Q9Y566): below the threshold
below the threshold	below the threshold	below the threshold	below the threshold	below the threshold	below the threshold	below the threshold	below the threshold	below the threshold	below the threshold	below the threshold	below the threshold	4.38	3.73	below the threshold	3.93	below the threshold	below the threshold	below the threshold	below the threshold	NVYGTESVKI [GRIA3, P42263]	pKd (PTPN3, P26045): below the threshold; pKd (GOPC, Q9HD26): below the threshold; pKd (ARHGEF12, Q9NZN5-2): below the threshold; pKd (MPP7, Q5T2T1): below the threshold; pKd (SHANK1, Q9Y566): below the threshold
below the threshold	below the threshold	below the threshold	below the threshold	below the threshold	below the threshold	below the threshold	below the threshold	below the threshold	below the threshold	below the threshold	below the threshold	3.74	3.74	below the threshold	below the threshold	below the threshold	below the threshold	below the threshold	below the threshold	SRPRPDDLEI [GJA1, P17302]	pKd (PTPN3, P26045): below the threshold; pKd (GOPC, Q9HD26): below the threshold; pKd (ARHGEF12, Q9NZN5-2): below the threshold; pKd (MPP7, Q5T2T1): below the threshold; pKd (SHANK1, Q9Y566): below the threshold

From publication PMC9482650, “Quantitative fragmentomics allow affinity mapping of interactomes” (Nature Communications, 2022)
